{
  "source": "patent US20170137855A1",
  "about": "“RECOMBINANT CELLS AND METHODS FOR NONPHOSPHORYLATIVE METABOLISM” (REGENTS OF THE UNIVERSITY OF MINNESOTA, priority 2015, published 2017)",
  "key": {"[1]": {"substrate": "O=C(O)C(=O)C[C@H](O)CO", "experiment": "2-ketoacid decarboxylase Kivd wild type, coupled assay, NADPH oxidation at 340 nm", "format": "biochemical", "settings": "other: wild type; BTO substrate; pH 7.5; 30.0 °C", "experimental": "(§1) 2-Ketoacid decarboxylase (Kivd) and alcohol dehydrogenase (YqhD): The decarboxylase activity of Kivd was measured by a coupled enzymatic assay with AraC, AraD, and YqhD (Zhang et al., 2011. ChemSusChem 4:1068-1070). Excess AraC, AraD, and YqhD was used and the oxidation of NADPH was monitored at 340 nm. The assay mixture contained 1 mM NADPH, 1 μM AraC, 1 μM AraD, and 100 nM YqhD and 0.1-10 mM L-arabonate in assay buffer (100 mM Tris-HCl buffer, pH 7.5, 5 mM MgSO4, 0.5 mM ThDP) with a total volume of 0.1 ml. The mixture was incubated at 30° C. for one hour and 10 nM Kivd was added. The dehydrogenase activity of YqhD was assayed according to NADPH initial consumption rates in a coupled assay. The assay mixture contained 1 mM NADPH, 100 nM Kivd, 1 μM AraC, 1 μM AraD, and 0.1-10 mM L-arabonate in 100 μl of 100 mM Tris-HCl buffer (pH 7.5) with 5 mM MgSO4. The mixture was first incubated at 30° C. for one hour. Afterwards, 10 nM YqhD was added and the NADPH consumption rate was monitored."}, "[2]": {"substrate": "O=CCCC(=O)C(=O)O", "experiment": "2-ketoacid decarboxylase Kivd wild type, coupled assay, NADPH oxidation at 340 nm", "format": "biochemical", "settings": "other: coupled assay, substrate from 0.1-10 mM L-arabonate, 1 mM NADPH, 0.5 mM ThDP, pH 7.5, 10 nM Kivd, 30.0 °C", "experimental": "as §1"}, "[3]": {"substrate": "O=C(O)C(=O)C[C@H](O)CO", "experiment": "2-ketoacid decarboxylase Kivd V461I mutant, coupled assay, NADPH oxidation at 340 nm", "format": "biochemical, Lactococcus lactis", "settings": "other: V461I mutant; BTO substrate; pH 7.5; 30.0 °C", "experimental": "as §1"}, "[4]": {"substrate": "O=CCCC(=O)C(=O)O", "experiment": "2-ketoacid decarboxylase Kivd V461I mutant, coupled assay, NADPH oxidation at 340 nm", "format": "biochemical, Lactococcus lactis", "settings": "other: V461I mutant, coupled assay, pH 7.5, 30.0 °C", "experimental": "as §1"}},
  "data": [
    {"protein": "Lactococcus lactis 2-ketoacid decarboxylase Kivd, wild type (Lactococcus lactis subsp. lactis) (protein, also expressed from pBDO-5 in E. coli fermentation (A5)) MYTVGDYLLDRLHELGIEEIFGVPGDYNLQFLDQIISHKDMKWVGNANELNASYMADGYARTKKAAAFLTTFGVGELSAVNGLAGSYAENLPVVEIVGSPTSKVQNEGKFVHHTLADGDFKHFMKMHEPVTAARTLLTAENATVEIDRVLSALLKERKPVYINLPVDVAAAKAEKPSLPLKKENSTSNTSDQEILNKIQESLKNAKKPIVITGHEIISFGLEKTVTQFISKTKLPITTLNFGKSSVDEALPSFLGIYNGTLSEPNLKEFVESADFILMLGVKLTDSSTGAFTHHLNENKMISLNIDEGKIFNERIQNFDFESLISSLLDLSEIEYKGKYIDKKQEDFVPSNALLSQDRLWQAVENLTQSNETIVAEQGTSFFGASSIFLKSKSHFIGQPLWGSIGYTFPAALGSQIADKESRHLLFIGDGSLQLTVQELGLAIREKINPICFIINNDGYTVEREIHGPNQSYNDIPMWNYSKLPESFGATEDRVVSKIVRTENEFVSVMKEAQADPNRMYWIELILAKEGAPKVLKKMGKLFAEQNKS", "values": [
      {"measurement": "kcat/Km", "setting": "[1]", "result": 7700, "unit": "M⁻¹ s⁻¹"},
      {"measurement": "Km", "setting": "[2]", "result": 4.8, "unit": "mM"},
      {"measurement": "kcat", "setting": "[2]", "result": 4.8, "unit": "s⁻¹"}
    ]},
    {"protein": "Lactococcus lactis 2-ketoacid decarboxylase Kivd variant V461I (Lactococcus lactis subsp. lactis; V461I) (protein, coupled with AraC/AraD/YqhD) MYTVGDYLLDRLHELGIEEIFGVPGDYNLQFLDQIISHKDMKWVGNANELNASYMADGYARTKKAAAFLTTFGVGELSAVNGLAGSYAENLPVVEIVGSPTSKVQNEGKFVHHTLADGDFKHFMKMHEPVTAARTLLTAENATVEIDRVLSALLKERKPVYINLPVDVAAAKAEKPSLPLKKENSTSNTSDQEILNKIQESLKNAKKPIVITGHEIISFGLEKTVTQFISKTKLPITTLNFGKSSVDEALPSFLGIYNGTLSEPNLKEFVESADFILMLGVKLTDSSTGAFTHHLNENKMISLNIDEGKIFNERIQNFDFESLISSLLDLSEIEYKGKYIDKKQEDFVPSNALLSQDRLWQAVENLTQSNETIVAEQGTSFFGASSIFLKSKSHFIGQPLWGSIGYTFPAALGSQIADKESRHLLFIGDGSLQLTVQELGLAIREKINPICFIINNDGYTIEREIHGPNQSYNDIPMWNYSKLPESFGATEDRVVSKIVRTENEFVSVMKEAQADPNRMYWIELILAKEGAPKVLKKMGKLFAEQNKS", "values": [
      {"measurement": "kcat/Km", "setting": "[3]", "result": 500, "unit": "M⁻¹ s⁻¹"},
      {"measurement": "kcat/Km", "setting": "[4]", "result": 2500, "unit": "M⁻¹ s⁻¹"}
    ]}
  ]
}
